# Assays:
# [1] = Platinum release from PBS (percent small Pt species released from polymer-platinum conjugate); assay type: physicochemical; details: PBS at 37° C.
# Experimental: The compound tested comprised a poly(N-(2-hydroxypropyl)methacrylamide (90%)-co-(N-(linker)-Pt complex)methacrylamide (10%)) polymer and either cis-diammine or 1R,2R-diaminocyclohexane (DACH) as the stable ligands/chelate of the Pt complex. The leaving-ligand comprised an N,O bidentate ligand with amidoaspartate (Asp) or amidomalonate (Ama).
# The percent of small platinum species released over time was measured by dissolving about 30 mg of the polymer-platinum conjugate in 15 mL of phosphate buffered saline (10 mM phosphate, 123 mM Cl^−) and incubating the solution at 37° C. in a water bath. At indicated times, 2.0 mL aliquots were transferred to a centrifugal filter with a 3 kDa nominal molecular weight cutoff (Centricon YM-3 from Millipore) and spun until >1.5 mL of filtrate had accumulated. The timed filtrates and the original solution were analyzed for platinum by ICP-OES. The percent of small Pt species released was determined using the formula: ((ppm Pt in filtrate)/(ppm Pt in stock solution)) X 100.
# [2] = as above; assay type: physicochemical
# [3] = Maximum tolerated dosage used in the B16F10 murine melanoma model; assay type: in vivo, C57BL/6 mice; details: mice
# Experimental: C57BL/6 mice (10 animals per compound treatment group) were dosed with the amount of compound indicated. The mice were inoculated subcutaneously in the right rear flank with 10^6 B16F10 murine melanoma cells. Beginning at day 6 post-implantation, tumor size was measured daily using calipers under light Methfurane anesthesia. The mass of the resulting tumor in milligrams was estimated using the formula W^2(L)/2 where W is the length of the shorter tumor dimension and L is the length of the longer dimension. Treatment was commenced when the tumor was 50-75 mg or larger. Each animal was followed individually so that Day 1 of treatment for each animal was the day on which that animal's tumor reached the appropriate size. The test compounds were administered […] through the tail vein using a volume of 0.2-0.3 mL per 20 grams body weight. The animals were observed and weighed daily prior to dosing to establish the proper dosing volume for that day and such was continued until the end of the study. […]
# [4] = Table 2. Comparison of representative compounds C1-C13 of this invention versus carboplatin.
# Text: Table printed on a drawing sheet, FIGURE 15
# Title: Table 2. Comparison of representative compounds C1-C13 of this invention versus carboplatin.
# The patent's description of the figure: FIG. 15 is Table 2.
# First reader's note: Relative TGI is an in-vivo tumor growth inhibition class relative to carboplatin; C2, C3 and C5 are printed with 'Ama-Pt' (hyphen) instead of 'Ama=Pt'.
# [5] = test system: B16F10 murine melanoma cells; assay: B16F10 murine melanoma tumor growth inhibition in C57BL/6 mice; assay type: in vivo; details: each compound at its MTD (20 mgPt/kg vs. 50 mgPt/Kg), groups of ten mice
# Experimental: C57BL/6 mice (10 animals per compound treatment group) were dosed with the amount of compound indicated. The mice were inoculated subcutaneously in the right rear flank with 10^6 B16F10 murine melanoma cells. Beginning at day 6 post-implantation, tumor size was measured daily using calipers under light Methfurane anesthesia. The mass of the resulting tumor in milligrams was estimated using the formula W^2(L)/2 where W is the length of the shorter tumor dimension and L is the length of the longer dimension. Treatment was commenced when the tumor was 50-75 mg or larger. Each animal was followed individually so that Day 1 of treatment for each animal was the day on which that animal's tumor reached the appropriate size. The test compounds were administered […] through the tail vein using a volume of 0.2-0.3 mL per 20 grams body weight. The animals were observed and weighed daily prior to dosing to establish the proper dosing volume for that day and such was continued until the end of the study.
# Using the above procedure, a number of exemplary compounds of this invention were compared to carboplatin. […]
Substance,% Pt Release ([1]; 3 h) [%],% Pt Release ([1]; 24 h) [%],further results
poly(HPMA)-GFLG-C3-Sulf-Ama=Pt(NH3)2 [75a],3.02,5.44,
poly(HPMA)-GG-Asp=Pt(NH3)2 [54a],,,Pt release in PBS at 38.C ([2]; 3 hr): 3.92%; Pt release in PBS at 38.C ([2]; 24 hr): 11.02%
p(HMPA)-GFLG-Ama=Pt=DACH [C2] [listing 1 of 2 here],,,maximum tolerated dosage (MTD) [3]: 50 mgPt/kg
poly(HPMA)-GG-Ama=Pt(NH3)2 [53a],1.4,4.6,
"Poly(HPMA)-GG-Asp=Pt=1R,2R-DACH [54b]",3.20,10.68,
p(HMPA)-GFLG-Ama=Pt=DACH [C2] [listing 2 of 2 here],,,Pt release (% at 24 h) [4]: 2.6 % at 24 h
poly(HPMA)-GGGG-Ama=PtDACH [57b],0.972,3.173,
"poly(HPMA)-GGG-Ama=Pt=1R, 2R-DACH [C13] [listing 1 of 2 here]",,,Pt release (% at 24 h) [4]: 3.6 % at 24 h
poly(HPMA)-GFLG-Asp=Pt(NH3)2 [60a],1.95,5.85,
"poly(HPMA)-GGG-Ama=Pt=1R, 2R-DACH [C13] [listing 2 of 2 here]",,,"delay in tumor growth, C13 versus C2 (FIG. 14) [5]: prolonged delay in tumor growth compared to compound C2; maximum tolerated dosage (MTD) [3]: 20 mgPt/kg"
"poly(HPMA)-GG-Ama=Pt=1R,2R-DACH [53b]",1.3,5.5,
